{"source": "patent US10544159B2", "about": "“Artemisinin derivatives, methods for their preparation and their use as antimalarial agents” (priority 2012, dated 2020)", "molecules": {"B1": {"name": "II-E2: FL#62-derived P450 variant (SEQ ID NO. 13) (protein)", "chain": "MTIKEMPQPKTFGELKNLPLLNTDKPVQALMKIADELGEIFKFEAPGRVTRYLSSQRLIKEACDESRFDKNLSQALKFNRDFAGDGLATSWTHEKNWKKAHNILLPSFSQQAMKGYHAMMVDIAVQLVQKWERLNADEHIEVSEDMTRLTLDTIGLCGFNYRFNSFYRDQPHPFIISMVRTLDEVMNKLQRANPDDPVYDENKRQCQEDIKVMNDLVDKIIADRKARGEQSDDLLTQMLNGKDPETGEPLDDGNISYQIITFLIAGHETTSGLLSFALYFLVKNPHVLQKVAEEAARVLVDPVPSYKQVKQLKYVGMVLNEALRLWPTAPAFSLYAKEDTVLGGEYPLEKGDEVMVLIPQLHRDKTIWGDDVEEFRPERFENPSAIPQHAFKPFGNGQRACIGQQFALHEATLVLGMMLKHFDFEDHTNYELDIKETLTLKPEGFVVKAKSKKIPLGGIPSPSTEQSAKKVRKKAENAHNTPLLVLYGSNMGTAEGTARDLADIAMSKGFAPQVATLDSHAGNLPREGAVLIVTASYNGHPPDNAKQFVDWLDQASADEVKGVRYSVFGCGDKNWATTYQKVPAFIDETLAAKGAENIADRGEADASDDFEGTYEEWREHMWSDVAAYFNLDIENSEDNKSTLSLQFVDSAADMPLAKMHGAFSTNVVASKELQQPGSARSTRHLEIELPKEASYQEGDHLGVIPRNYEGIVNRVTARFGLDASQQIRLEAEEEKLAHLPLAKTVSVEELLQYVELQDPVTRTQLRAMAAKTVCPPHKVELEALLEKQAYKEQVLAKRLTMLELLEKYPACEMKFSEFIALLPSIRPRYYSISSSPRVDEKQASITVSVVSGEAWSGYGEYKGIASNYLAELQEGDTITCFISTPQSEFTLPKDPETPLIMVGPGTGVAPFRGFVQARKQLKEQGQSLGEAHLYFGCRSPHEDYLYQEELENAQSEGIITLHTAFSRMPNQPKTYVQHVMEQDGKKLIELLDQGAHFYICGDGSQMAPAVEATLMKSYADVHQVSEADARLWLQQLEEKGRYAKDVWAG"}, "B2": {"name": "FL#62: CYP102A1-derived engineered P450 variant (SEQ ID NO. 8) (protein)", "chain": "B1 chain with N79A, F82S, A83V"}, "B3": {"name": "II-H10: FL#62-derived P450 variant (SEQ ID NO. 11), 7(R)-hydroxylating (protein)", "chain": "B1 chain with A83T, A88F, L182F, V185T"}, "B4": {"name": "V-H2: FL#62-derived P450 variant (SEQ ID NO. 10) (protein)", "chain": "B1 chain with N79S, F82I"}, "B5": {"name": "III-B1: FL#62-derived P450 variant (SEQ ID NO. 12) (protein)", "chain": "B1 chain with N79F"}, "B6": {"name": "X-F11: II-E2-derived P450 variant (SEQ ID NO. 15), 6a-hydroxylating (protein)", "chain": "B1 chain with A75T, T181A, V185S"}, "B7": {"name": "X-E12: II-E2-derived P450 variant (SEQ ID NO. 14), 6a-hydroxylating (protein)", "chain": "B1 chain with A75V, L182A, V185T"}}, "key": {"P. berghei ANKA": {"system": "P. berghei ANKA", "assay": "Antimalarial activity in Plasmodium berghei-infected mice", "type": "in vivo", "parameters": "fold higher survival rate than in the absence of treatment: concentration or dose not given beside the values", "conditions": "male C57BL6 mice, after day 7", "method": "Briefly, asynchronous P. falciparum (strain 3d7) cultures were maintained at 37° C. at >10% parasitemia in fresh human red blood cells (2% hematocrit) in complete malaria medium. After 4 days (i.e., after 2 replicative parasitic cycles) flasks were synchronized with 5% sorbitol. 72 hours after synchronization, cells were plated and treated with the artemisinin derivatives at various concentrations. After 48 hours of incubation, the cells were lysed and labeled with SybrGreen and fluorescence emission was measured (excitation at 485 nm, emission at 530 nm). […] For the in vivo studies, male C57BL6 mice (6-8 weeks old) were infected with 0.7×10^5 P. berghei ANKA iRBCs and then treated with intraperitoneal injections of the compounds starting from day 3-5 post infection. A set of mice was left untreated and served as negative control. Survival was monitored and parasitemia determined SYBR-green (SYBRGr) staining of infected red blood cells and subsequent flow cytometric analysis."}, "[1]": {"target": "P450 variant FL#62 (SEQ ID NO. 8) (Priestia megaterium, UniProt P14779, A181T/A185V/A198V/A291V/A83V/E253G/F206C/F82S/F88A/H237Q/L354V/P143S/R256S/S227R/T176I/V79A)", "sequence (P14779 other isoform, or with tags, fused parts or gaps with the stated changes)": "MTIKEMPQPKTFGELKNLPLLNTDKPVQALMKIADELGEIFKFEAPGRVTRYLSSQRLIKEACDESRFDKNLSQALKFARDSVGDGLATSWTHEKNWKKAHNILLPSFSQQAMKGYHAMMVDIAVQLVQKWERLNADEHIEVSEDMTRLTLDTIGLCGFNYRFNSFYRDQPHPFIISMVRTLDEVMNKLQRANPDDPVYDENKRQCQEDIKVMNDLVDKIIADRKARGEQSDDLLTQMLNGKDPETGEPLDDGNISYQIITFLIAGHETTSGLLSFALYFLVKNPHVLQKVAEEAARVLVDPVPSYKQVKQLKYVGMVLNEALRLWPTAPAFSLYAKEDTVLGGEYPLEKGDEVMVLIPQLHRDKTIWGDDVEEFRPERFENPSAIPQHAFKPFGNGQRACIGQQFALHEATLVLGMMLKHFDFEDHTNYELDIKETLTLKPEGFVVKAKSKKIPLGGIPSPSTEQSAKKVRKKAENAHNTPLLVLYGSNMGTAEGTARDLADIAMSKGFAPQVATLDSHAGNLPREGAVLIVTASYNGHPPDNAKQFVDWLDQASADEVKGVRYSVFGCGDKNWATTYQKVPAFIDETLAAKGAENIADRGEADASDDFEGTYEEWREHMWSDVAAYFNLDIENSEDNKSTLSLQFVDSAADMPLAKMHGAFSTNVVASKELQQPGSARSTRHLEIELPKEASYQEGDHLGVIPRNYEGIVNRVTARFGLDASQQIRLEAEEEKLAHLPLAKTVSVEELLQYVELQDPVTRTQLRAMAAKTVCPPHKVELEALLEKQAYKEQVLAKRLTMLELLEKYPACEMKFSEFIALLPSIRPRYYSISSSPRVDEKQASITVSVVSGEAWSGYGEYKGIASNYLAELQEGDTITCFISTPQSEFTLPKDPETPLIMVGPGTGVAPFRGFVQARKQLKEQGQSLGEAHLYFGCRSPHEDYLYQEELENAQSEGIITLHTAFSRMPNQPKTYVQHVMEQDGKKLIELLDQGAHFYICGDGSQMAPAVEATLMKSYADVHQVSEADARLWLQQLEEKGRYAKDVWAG", "conditions": "0.5 mM substrate, 1 μM FL#62, 12 hours", "method": "Reaction conditions were: 0.5 mM substrate, 1 μM FL#62 (SEQ ID NO: 8), 2 μM PTDH, 100 μM NADP^+, and 50 mM sodium phosphite in potassium phosphate buffer (50 mM, pH 8.0). After 12 hours, the hydroxylation products formed in these reactions were extracted with dichloromethane and quantified by HPLC and LC-MS."}, "wild-type P450BM3": {"target": "wild-type P450BM3 (Priestia megaterium, UniProt P14779)", "sequence (P14779 whole entry)": "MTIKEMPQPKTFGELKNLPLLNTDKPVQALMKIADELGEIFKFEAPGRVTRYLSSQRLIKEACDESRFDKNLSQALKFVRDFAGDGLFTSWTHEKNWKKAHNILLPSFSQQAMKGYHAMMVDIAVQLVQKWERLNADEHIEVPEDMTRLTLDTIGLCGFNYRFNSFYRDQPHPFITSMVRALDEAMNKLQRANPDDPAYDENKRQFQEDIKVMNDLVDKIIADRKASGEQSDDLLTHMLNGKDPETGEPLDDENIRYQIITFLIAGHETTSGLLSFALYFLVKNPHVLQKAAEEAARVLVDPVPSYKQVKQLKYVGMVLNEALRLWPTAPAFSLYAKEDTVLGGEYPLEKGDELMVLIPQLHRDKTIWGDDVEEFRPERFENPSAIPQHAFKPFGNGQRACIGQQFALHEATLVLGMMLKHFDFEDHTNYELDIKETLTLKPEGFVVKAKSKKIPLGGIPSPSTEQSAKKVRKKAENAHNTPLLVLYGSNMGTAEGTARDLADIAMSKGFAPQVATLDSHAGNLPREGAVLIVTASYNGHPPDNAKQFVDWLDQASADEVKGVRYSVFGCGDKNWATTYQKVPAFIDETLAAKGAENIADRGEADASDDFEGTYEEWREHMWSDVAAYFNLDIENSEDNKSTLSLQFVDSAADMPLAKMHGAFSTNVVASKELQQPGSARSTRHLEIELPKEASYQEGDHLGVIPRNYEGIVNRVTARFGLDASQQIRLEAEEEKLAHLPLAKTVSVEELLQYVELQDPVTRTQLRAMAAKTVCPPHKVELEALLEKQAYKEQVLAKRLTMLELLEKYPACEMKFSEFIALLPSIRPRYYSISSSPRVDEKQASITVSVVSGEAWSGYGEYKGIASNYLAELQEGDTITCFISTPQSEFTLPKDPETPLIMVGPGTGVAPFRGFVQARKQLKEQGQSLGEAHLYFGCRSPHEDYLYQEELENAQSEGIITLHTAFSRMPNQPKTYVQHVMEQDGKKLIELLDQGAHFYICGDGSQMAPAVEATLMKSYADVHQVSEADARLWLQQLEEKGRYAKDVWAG", "conditions": "fatty acid laurate with wild-type P450BM3; read-out: equilibrium dissociation constant; cited from earlier work"}, "[2]": {"assay": "Total turnovers and regio-/stereoselectivity of P450 variants in artemisinin hydroxylation (analytical scale)", "type": "biochemical", "conditions": "for regioselectivity toward 6a-hydroxylation: artemisinin as substrate; for Product distribution (%) 4: share of 6a-hydroxy-ART (4); for Product distribution (%) 4 / Product distribution (%) 3 / Product distribution (%) 2: 0.5 mM artemisinin, 0.5-1 μM P450, 12 hours; for Product distribution (%) 3: share of 7(R)-hydroxy-ART (3); for Product distribution (%) 2: share of 7(S)-hydroxy-ART (2); for TTN: total turnovers on artemisinin, NADPH cofactor regeneration system, analytical scale", "method": "Determination of Total Turnovers and Regio- and Stereoselectivity of the P450 Variants.\nAfter 12 hours, 9-fluorenone was added to the mixtures as internal standard. The hydroxylation products were functionalized with benzoyl chloride followed by HPLC analysis. TTN values were calculated based on the total amount of hydroxylated products in the reactions as quantified based on the calibration curves generated using purified 2-4. The enzyme regio- and stereoselectivity was determined based on the area under the curve of the chromatographic peaks corresponding to the hydroxylation products 2, 3, and 4. Mean and standard deviation values reported for P450 variants in Table 1 were calculated from experiments performed at least in triplicate."}, "[3]": {"type": "biochemical", "conditions": "250 μM artemisinin, rates measured over initial 30 seconds", "method": "Measurement of Product Formation Rates and Coupling Efficiency.\nInitial product formation rates were measured from 1 mL-scale reactions containing 250 μM artemisinin, 0.1-0.5 μM purified P450, and 200 μM NADPH in potassium phosphate buffer (50 mM, pH 8.0) at room temperature. After 30 seconds, the samples were extracted with dichloromethane and subjected to benzoyl chloride derivatization followed by HPLC analysis as described above. Cofactor oxidation rate in the presence of artemisinin was measured by monitoring NADPH depletion at 340 nm (ε=6.22 mM^−1 cm^−1) using 0.1 μM purified P450, 250 μM artemisinin, and 200 μM NADPH. Coupling efficiency was calculated from the ratio between the initial product formation rate and the initial NADPH oxidation rate. Reported mean and standard deviation values were calculated from experiments performed at least in triplicate."}, "[4]": {"assay": "KD for artemisinin binding to P450 variants (heme spin-shift titration)", "conditions": "binding of artemisinin to 3 μM purified P450, pH 8.0", "method": "Determination of KD Values for Artemisinin Binding.\nBinding experiments were performed using 3 μM purified P450 in potassium phosphate buffer (50 mM, pH 8.0) by titrating increasing amounts of artemisinin (5 μM to 1 mM) from an ethanol stock solution (50 mM). At each concentration, a difference spectrum from 350 to 500 nm was recorded and binding curves were generated by plotting the change in absorbance at 390 nm and 420 nm corresponding to the high-spin and low-spin state of the enzyme, respectively, against the artemisinin concentration. KD values were calculated using Sigma Plot via non-linear fitting of the experimental binding curves to an equation describing a standard 1:1 binding interaction. Reported mean and standard deviation values were calculated from experiments performed at least in triplicate."}}, "note": "Residue numbers refer to the chain shown, from its start. Several values for one entry are separate records, joined by “and”; a condition that tells them apart may be missing. Identical values can stand only once.", "data": [{"molecule": "CC1C(=O)OC2OC3(C)CCC4C(C)[C@H](F)CC1C24OO3", "note": "(stereo partly drawn) [Compound 5, 7(R)-fluoro-artemisinin]", "values": [{"measurement": "survival rate", "setting": "P. berghei ANKA; intraperitoneal injections starting from day 3-5 post infection", "result": 80, "unit": "%"}, {"measurement": "fold higher survival rate than in the absence of treatment", "setting": "P. berghei ANKA; intraperitoneal", "result": 2, "unit": "fold"}]}, {"molecule": "COC(=O)CCC(=O)O[C@@H]1O[C@@H]2O[C@@]3(C)CC[C@H]4[C@H](C)CC[C@@H]([C@H]1C)[C@@]24OO3", "note": "[artesunate methyl ester]", "values": [{"measurement": "catalytic activity relative to that displayed in the presence of artemisinin", "setting": "[1]", "result": "ca. 80%"}]}, {"molecule": "CCCCCCCCCCCC(=O)O", "note": "[laurate]", "values": [{"measurement": "Kd", "setting": "wild-type P450BM3", "result": 270, "unit": "µM"}]}, {"molecule": "B1", "values": [{"measurement": "regioselectivity toward 6a-hydroxylation", "setting": "[2]", "result": 48, "unit": "%"}, {"measurement": "Product distribution (%) 4", "setting": "[2]", "result": 48, "unit": "%"}, {"measurement": "Product distribution (%) 3", "setting": "[2]", "result": 30, "unit": "%"}, {"measurement": "Product distribution (%) 2", "setting": "[2]", "result": 22, "unit": "%"}, {"measurement": "TTN", "setting": "[2]", "result": "393 and 393 ± 25"}, {"measurement": "Product formation rate", "setting": "[3]", "result": "148 ± 3 Mole product per mole P450 per minute"}, {"measurement": "Kd", "setting": "[4]", "result": "164 ± 18", "unit": "µM"}]}, {"molecule": "B2", "values": [{"measurement": "regioselectivity toward 6a-hydroxylation", "setting": "[2]", "result": 7, "unit": "%"}, {"measurement": "Product distribution (%) 4", "setting": "[2]", "result": 7, "unit": "%"}, {"measurement": "Product distribution (%) 3", "setting": "[2]", "result": 10, "unit": "%"}, {"measurement": "Product distribution (%) 2", "setting": "[2]", "result": 83, "unit": "%"}, {"measurement": "Product formation rate", "setting": "[3]", "result": "316 ± 20 Mole product per mole P450 per minute"}, {"measurement": "Kd", "setting": "[4]", "result": "29 ± 5", "unit": "µM"}]}, {"molecule": "B3", "values": [{"measurement": "Product distribution (%) 4", "setting": "[2]", "result": 0, "unit": "%"}, {"measurement": "Product distribution (%) 3", "setting": "[2]", "result": 100, "unit": "%"}, {"measurement": "Product distribution (%) 2", "setting": "[2]", "result": 0, "unit": "%"}, {"measurement": "TTN", "setting": "[2]", "result": "270 ± 8"}, {"measurement": "Product formation rate", "setting": "[3]", "result": "32 ± 2 Mole product per mole P450 per minute"}, {"measurement": "Kd", "setting": "[4]", "result": "61 ± 2", "unit": "µM"}]}, {"molecule": "B4", "values": [{"measurement": "Product distribution (%) 4", "setting": "[2]", "result": 4, "unit": "%"}, {"measurement": "Product distribution (%) 3", "setting": "[2]", "result": 0, "unit": "%"}, {"measurement": "Product distribution (%) 2", "setting": "[2]", "result": 96, "unit": "%"}, {"measurement": "TTN", "setting": "[2]", "result": "434 ± 21"}, {"measurement": "Product formation rate", "setting": "[3]", "result": "41 ± 2 Mole product per mole P450 per minute"}, {"measurement": "Kd", "setting": "[4]", "result": "45 ± 10", "unit": "µM"}]}, {"molecule": "B5", "values": [{"measurement": "Product distribution (%) 4", "setting": "[2]", "result": 0, "unit": "%"}, {"measurement": "Product distribution (%) 3", "setting": "[2]", "result": 81, "unit": "%"}, {"measurement": "Product distribution (%) 2", "setting": "[2]", "result": 19, "unit": "%"}, {"measurement": "TTN", "setting": "[2]", "result": "403 ± 17"}, {"measurement": "Product formation rate", "setting": "[3]", "result": "72 ± 2 Mole product per mole P450 per minute"}, {"measurement": "Kd", "setting": "[4]", "result": "38 ± 2", "unit": "µM"}]}, {"molecule": "B6", "values": [{"measurement": "regioselectivity toward 6a-hydroxylation", "setting": "[2]", "result": 92, "unit": "%"}, {"measurement": "Product distribution (%) 4", "setting": "[2]", "result": 92, "unit": "%"}, {"measurement": "Product distribution (%) 3", "setting": "[2]", "result": 8, "unit": "%"}, {"measurement": "Product distribution (%) 2", "setting": "[2]", "result": 0, "unit": "%"}, {"measurement": "TTN", "setting": "[2]", "result": "376 ± 19"}, {"measurement": "Product formation rate", "setting": "[3]", "result": "56 ± 2 Mole product per mole P450 per minute"}, {"measurement": "Kd", "setting": "[4]", "result": "234 ± 29", "unit": "µM"}]}, {"molecule": "B7", "values": [{"measurement": "regioselectivity toward 6a-hydroxylation", "setting": "[2]", "result": 94, "unit": "%"}, {"measurement": "Product distribution (%) 4", "setting": "[2]", "result": 94, "unit": "%"}, {"measurement": "Product distribution (%) 3", "setting": "[2]", "result": 2, "unit": "%"}, {"measurement": "Product distribution (%) 2", "setting": "[2]", "result": 4, "unit": "%"}, {"measurement": "TTN", "setting": "[2]", "result": "113 and 113 ± 12"}, {"measurement": "Product formation rate", "setting": "[3]", "result": "72 ± 3 Mole product per mole P450 per minute"}, {"measurement": "Kd", "setting": "[4]", "result": "300 ± 24", "unit": "µM"}]}]}
